One molecule from patent US20040253612A1 can be followed below.

Test [1] addresses anti-myc monoclonal antibody (doped selection experiment). Kind of test: immunoprecipitation from 1:200 myc:pool (LP154:LP160); PCR, AlwnI digest, phosphorimager; background method 3.
Test [2] shares this target. The test can be described thus: immunoprecipitation from 1:2000 myc:pool (LP154:LP160); PCR, AlwnI digest, phosphorimager; background method 3.
Test [3] shares this target. Kind of test: immunoprecipitation from 1:200 myc:pool (LP154:LP160); PCR, AlwnI digest, phosphorimager; background method 1.
Test [4] shares this target. Kind of test: immunoprecipitation from 1:20 myc:pool (LP154:LP160); PCR, AlwnI digest, phosphorimager; background method 2.
For test [5] the target is unchanged. The test can be described thus: second set of digests, method 2; sample equivalent to lane 4 (1:2000 myc:pool).
Test [6] has the same target. Kind of test: immunoprecipitation from 1:2000 myc:pool (LP154:LP160); PCR, AlwnI digest, phosphorimager; background method 2.
Test [7] has the same target. The test can be described thus: immunoprecipitation; PCR and restriction digest before and after selection.
For test [8] the target is unchanged. Kind of test: second set of digests, method 2; sample equivalent to lane 3 (1:200 myc:pool).
Test [9] shares this target. Kind of test: immunoprecipitation from 1:20 myc:pool (LP154:LP160); PCR, AlwnI digest, phosphorimager; background method 3.
For test [10] the target is unchanged. Kind of test: immunoprecipitation from 1:200 myc:pool (LP154:LP160); PCR, AlwnI digest, phosphorimager; background method 2.
Test [11] shares this target. The test can be described thus: second set of digests, method 2; sample equivalent to lane 2 (1:20 myc:pool).
The target is the same in test [12]. Kind of test: immunoprecipitation from 1:2000 myc:pool (LP154:LP160); PCR, AlwnI digest, phosphorimager; background method 1.
Test [13] shares this target. The test can be described thus: immunoprecipitation from 1:20 myc:pool (LP154:LP160); PCR, AlwnI digest, phosphorimager; background method 1.

B1: RNA-protein fusion LP154 (long myc template fusion) (peptide)
peptide: MAEEQKLISEEDLLRKRREQLKHKLEQLRNSCA
modifications: C-terminus joined by an amide bond to the 3' puromycin of its own mRNA-DNA linker template LP154 (SEQ ID NO: 3)
With B1, the Enrichment of Myc Template vs. Pool in test [1] came to 27 fold; in test [2], 10.2 fold; in [3], 16.6 fold; in test [4] it was 10.4 fold; in [6], 39 fold; in [9], 8.7 fold. For the same molecule, the Enrichment of Myc Template vs. Pool in test [10] worked out at 43 fold; in test [12] it was 5.7 fold; in test [13], 7 fold. In addition, the enrichment (fold) of myc template vs. pool in [5] turned out to be 12 fold; in test [8], 38 fold; in test [11] it was 10.7 fold. This molecule came in with an enrichment (fold) relative to the random library in test [7] of 20 to 40 fold.
